IC50 (pM): inhibition of IL-1β induced production of IL-8 in human whole blood data for one substance are collected here from patent US20120005127A1.

This test has as its target IL-1 receptor (human) (UniProt P14778). Nature of the test: cell-based or functional assay.
Sequence of UniProt P14778 (P14778 18-569): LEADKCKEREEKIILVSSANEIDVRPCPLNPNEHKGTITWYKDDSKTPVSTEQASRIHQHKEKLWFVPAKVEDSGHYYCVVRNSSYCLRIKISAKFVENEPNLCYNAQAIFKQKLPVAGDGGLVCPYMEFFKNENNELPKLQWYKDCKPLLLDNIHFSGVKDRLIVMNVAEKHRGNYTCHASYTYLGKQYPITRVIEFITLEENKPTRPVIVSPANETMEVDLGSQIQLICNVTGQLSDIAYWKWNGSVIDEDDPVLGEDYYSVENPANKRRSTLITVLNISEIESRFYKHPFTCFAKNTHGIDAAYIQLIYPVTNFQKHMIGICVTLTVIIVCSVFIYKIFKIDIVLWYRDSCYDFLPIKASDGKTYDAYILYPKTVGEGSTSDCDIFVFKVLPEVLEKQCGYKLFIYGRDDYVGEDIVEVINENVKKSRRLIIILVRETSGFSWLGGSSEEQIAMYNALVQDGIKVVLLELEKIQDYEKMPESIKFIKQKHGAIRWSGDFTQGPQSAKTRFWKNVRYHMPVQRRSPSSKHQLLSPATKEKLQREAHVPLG

The substance “Kineret® (anakinra) (from UniProt P18510 26-177) (ligand)” registered an IC50 (pM): inhibition of IL-1β induced production of IL-8 in human whole blood of 53.4 pM.
